Results published in patent US20200207835A1, “SRCP1-BASED THERAPY FOR DISEASES ASSOCIATED WITH PROTEIN AGGREGATION” (THE MEDICAL COLLEGE OF WISCONSIN, INC., priority 2017, published 2020).

Legend:
[1] = test system: HEK293 cells; experiment: Cell viability assay (CellTiter-Glo); assay type: cell-based, human; settings: HEK293 transfected with RFPSRCP1 alone
Description: HEK293 cells were transfected as described with RFP or ^RFPSRCP1. Following transfections, cells were diluted to 500,000 cells/mL with 50,000 cells plated per well in duplicate from each transfection reaction in a 96-well plate. Serial dilutions were then performed down each column of the plate down to 390 cells per well. Cells were cultured for an additional 24 hours, then lysed using the CellTiter-Glo Kit (Promega). Luminescence was quantified between 565-700 nm wavelengths on a Spark microplate reader (Tecan) to determine cell viability.

[2] = biological target: T1, ^GFPHtt^ex1Q23 (Homo sapiens, UniProt P42858, DUP37-38); experiment: GFPHttex1Q23 levels in transfected HEK293 cells (western blot); assay type: cell-based; settings: HEK293, 48 hours post-transfection
T1 construct: encoding pEGFP huntingtin exon-1 with 23 (^GFPHtt^ex1Q23) or 74 (^GFPHtt^ex1Q74) glutamines; host or cells: HEK293
T1 sequence (P42858 with tags, fused parts or gaps DUP37-38): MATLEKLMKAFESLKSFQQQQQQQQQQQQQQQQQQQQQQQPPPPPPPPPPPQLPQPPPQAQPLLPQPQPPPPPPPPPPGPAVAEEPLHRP
Description: Transfections were performed with Lipofectamine 2000 (Invitrogen by ThermoFisher Scientific) and adapted from the manufacturer's instructions. Briefly, cells were plated on either 12-well or 6-well plates and transfected at 50-70% confluency. For 12-well transfections, 0.833 μg of DNA per well was mixed with 50 μl of OptiMEM (Gibco by Life Technologies) media and incubated for 5 minutes at room temperature. Lipofectamine 2000 in a 2:1, μl of lipofectamine: μg DNA ratio was mixed with 50 μl of OptiMEM media and incubated for 5 minutes at room temperature. DNA and Lipofectamine were mixed and incubated for 15 minutes at room temperature. Fresh media was added to cells prior to the addition of DNA and lipofectamine. For 6-well transfections, the same protocol is followed except that 1.25 μg of DNA per well and 100 μl of OptiMEM for dilution was used. Media was changed 24 hours post-transfection and cells were harvested 48 hours post-transfection. Prior to harvesting, HEK293 cells were washed three times with ice-cold 1×PBS. Samples were then lysed with either 150 μl of ice-cold NETN (with protease inhibitor) or 1× Laemmli Buffer and sonicated twice for 5-8 seconds.
Following sonication, lysates were subjected to BCA protein assay (ThermoFisher Scientific) and prepared for loading by the addition of 4× laemmli buffer and boiling for four minutes. […]

[3] = test system: wild-type or mutant α-synuclein; experiment: α-synuclein levels in HEK293 cells (western blot); assay type: cell-based, human; settings: HEK293, 48 hours, overexpression of SRCP1
Description: HEK 293 cells were transfected with either wild-type or mutant α-synuclein in the presence or absence of SRCP1. Cells were collected 48 hours later and analyzed by SDS-PAGE and western blot.

[4] = biological target: ^GFPHtt^ex1Q74 (Homo sapiens, UniProt P42858); experiment: GFPHttex1Q74 puncta in iPSC-derived neurons; assay type: cell-based; parameters: encoding pEGFP huntingtin exon-1 with 23 (^GFPHtt^ex1Q23) or 74 (^GFPHtt^ex1Q74) glutamines; host or cells: human iPSC-derived neurons (mixed cultures with astrocytes); settings: co-expression
^GFPHtt^ex1Q74, sequence (P42858 with tags, fused parts or gaps): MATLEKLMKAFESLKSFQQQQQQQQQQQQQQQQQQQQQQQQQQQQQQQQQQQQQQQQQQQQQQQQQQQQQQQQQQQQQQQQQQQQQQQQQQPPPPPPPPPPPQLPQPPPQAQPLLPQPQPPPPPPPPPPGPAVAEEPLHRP
Description: iPSC transfections were performed with mixed cultures of astrocytes and neurons adhered to matrigel-coated coverslips, seeded at 2.6×10^4 cells/cm^2. iPSC transfections were performed using Lipofectamine 2000 according to the manufacturer's instructions and recommended DNA concentrations for a 24-well transfection.
Plated iPSC derived cultures of astrocytes and neurons were fixed with 4% paraformaldehyde in PBS for 20 minutes at room temperature, 3-5 days after transfection. Cells were permeabilized and blocked prior to antibody labeling. Nuclei were labeled with Hoechst nuclear dye. Primary antibodies used were rabbit anti-Tuj1 (Covance MRB-435P), chicken anti-Tuj1(Gene Tex, GTX85469) and mouse anti-GFAP (Cell Signaling, 3670). Images were taken using an upright Nikon fluorescent microscope with a 40× objective. The number of neural cells with GFP positive puncta was quantified using NIS Elements object quantification tool (Nikon) and neurite length was measured using NIS Elements length measurement tool (Nikon).

B1: SRCP1: Dictyostelium discoideum serine-rich chaperone protein 1 (SEQ ID NO:2), expressed in cells as RFP-tagged construct (protein)
chain: MTILSTFTSFSNPPKLNKSSFSSSTGSSLSMGSNSFAWGGGWGGFGGPKGGSFNVDIAGNLIWGVYGFIRGGVGLVKWRGLQKGCKQP
modifications: RFP tag; Dictyostelium discoideum AX4
toxicity (viability by CellTiter-Glo) [1]: did not display any toxicity
levels of GFPHttex1Q23 [2]: did not alter the levels of
α-synuclein levels [3]: results in a reduction of α-synuclein
GFPHttex1Q74 puncta [4]: dramatic decrease in ^GFPHtt^ex1Q74 puncta
